These results are taken from patent US20260232826A1 (MABLINK BIOSCIENCE, published 2026).

The target of assay [1] is T1, recombinant human FRα protein (Sino Biological cat #11241-H08H) (human, UniProt P15328 25-233).
T1 construct: Bought recombinant protein; also called human folate receptor alpha; FOLR1
As to the kind of experiment: SPR, Biacore T200, 25 °C: antibody or ADC captured with Human Antibody Capture kit on CM5 chip, recombinant human FRα as analyte (0.5-8 nM), single cycle kinetics, 1:1 model, mean over replicates. The protocol:
(§1) Surface plasmon resonance (SPR) experiments are performed on a Biacore T200 apparatus, at 25° C. Tested antibody or ADC are captured at low density (300-500 RU) on a CM5 series S sensorchip, beforehand functionalized with a Human Antibody Capture kit (Cytiva cat #BR100839). A functionalized surface/flow cell treated similarly but omitting ligand is used as reference. […] The dissociation phase is measured by injection of running buffer for 900 sec. Between duplicates, surfaces/flow cells are regenerated with 3M MgCl₂ to remove both analyte and ligand, and fresh ligand capture are done using identical conditions. The data analysis is performed using the Biacore Evaluation software after subtraction of reference surface and analyte zero-concentration signals. Data are processed and fit to a 1:1 binding model to determine the binding kinetic rate constants, kₐ (on-rate) and kd (off-rate), and the KD (equilibrium dissociation constant, also referred to as “affinity”). Mean values and standard deviations over replicates are reported.
(§2) Surface plasmon resonance (SPR) experiments were performed on a Biacore T200 apparatus, at 25° C. Tested antibody or ADC were captured at low density (300-500 RU) on a CM5 series S sensorchip, beforehand functionalized with a Human Antibody Capture kit (Cytiva cat #BR100839). A functionalized surface/flow cell treated similarly but omitting ligand was used as reference. […] The dissociation phase was measured by injection of running buffer for 900 sec. Between duplicates, surfaces/flow cells were regenerated with 3M MgCl₂ to remove both analyte and ligand, and fresh ligand capture were done using identical conditions.
For orientation: In SPR one partner is held on a chip, and binding of the other changes the refractive index at the surface.

Assay [2] concerns the target T1, recombinant human FRα protein (Sino …). As to the kind of experiment: SPR, Biacore T200, 25 °C: antibody or ADC captured with Human Antibody Capture kit on CM5 chip, recombinant human FRα as analyte (0.5-8 nM), single cycle kinetics, 1:1 model, KD calculated as kd/ka. The protocol: as §1, §2
Assay [3] has the same target. As to the kind of experiment: ELISA: plate coated with recombinant human FRα (2 µg/mL), threefold dilution series of the antibody or ADC, goat anti-human IgG-HRP, normalized A450; x axis printed as [Recombinant FRa] (M) with log10 values. As to the method:
(§3) Sandwich ELISA assays are performed using 96-well high-binding ELISA plates (Corning Inc., New York, NY, USA, Cat #3590). Plates are coated using 100 µL/well of recombinant human FRα protein (Sino Biological cat #11241-H08H) in PBS (pH 7.4) at 2 μg/mL and incubated overnight at 4° C. After 2 washes with PBS-T (PBS+0.05% Tween-20), the plates are blocked with 200 μL/well of incubation buffer (PBS-T+0.1% BSA) for 1 h at room temperature. The plates are washed 4 times with PBS-T, and 100 μL of a threefold dilution series of tested compound (antibody or antibody-drug conjugate) is added. Then, the plates are incubated for 2 h at room temperature in the dark. After 5 washes with PBS-T, plates are incubated 1 h at room temperature with 100 μL/well of a goat anti-human IgG (H+L) HRP conjugated antibody (Jackson Immunoresearch cat #109-035-088), previously diluted 1:250000 in incubation buffer. After 5 washes with PBS-T, TMB substrate solution (Thermo-Fisher cat #N301) is added. […] Sigmoidal fittings were performed using GraphPad Prism 9 software.
Sandwich ELISA assays were performed using 96-well high-binding ELISA plates (Corning Inc., New York, NY, USA, Cat #3590). Plates were coated using 100 μL/well of recombinant human FRα protein (Sino Biological cat #11241-H08H); recombinant cynomolgus FRα protein (Sino Biological cat #90950-C08H); recombinant rat FRα protein (Sino Biological cat #81073-R08H) or recombinant mouse FRα protein (Sino Biological cat #50573-M08H) in PBS (pH 7.4) at 2 μg/mL and incubated overnight at 4° C. After 2 washes with PBS-T (PBS+0.05% Tween-20), the plates were blocked with 200 μL/well of incubation buffer (PBS-T+0.1% BSA) for 1 h at room temperature. The plates were washed 4 times with PBS-T, and 100 μL of a threefold dilution series of tested compound (antibody or antibody-drug conjugate) was added. Then, the plates were incubated for 2 h at room temperature in the dark. After 5 washes with PBS-T, plates were incubated 1 h at room temperature with 100 μL/well of a goat anti-human IgG (H+L) HRP conjugated antibody (Jackson Immunoresearch cat #109-035-088), previously diluted 1:250000 in incubation buffer.

Assay [4] has the same target. As to the kind of experiment: SPR Biacore T200, antibody captured, recombinant human FRα as analyte, 1:1 model; the filing attributes it to an increased kd with a similar ka. As to the method: as §1
Surface plasmon resonance (SPR) experiments were performed on a Biacore T200 apparatus, at 25° C. Tested antibody or ADC were captured at low density (300-500 RU) on a CM5 series S sensorchip, beforehand functionalized with a Human Antibody Capture kit (Cytiva cat #BR100839). […] The dissociation phase was measured by injection of running buffer for 900 sec. […]

Assay [5] deals with T2, recombinant rat FRα protein (Sino Biological cat #81073-R08H) (rat, UniProt G3V8M6 25-232).
T2 construct: Bought; also called rat recombinant FRα protein
T2 sequence (G3V8M6 entry or part of it R08H R08H limits assumed): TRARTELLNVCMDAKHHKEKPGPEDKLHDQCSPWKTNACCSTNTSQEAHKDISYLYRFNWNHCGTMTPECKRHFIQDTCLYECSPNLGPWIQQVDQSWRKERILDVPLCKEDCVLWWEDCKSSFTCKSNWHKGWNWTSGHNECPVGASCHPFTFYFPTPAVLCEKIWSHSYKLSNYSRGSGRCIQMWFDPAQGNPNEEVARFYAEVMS
As to the kind of experiment: ELISA: plate coated with recombinant rat FRα (2 µg/mL), threefold dilution series of F-LALA-VA-EXA, goat anti-human IgG-HRP, A450; x axis printed as [Recombinant FRa] (M) with log10 values. The protocol:
(§4) Sandwich ELISA assays were performed using 96-well high-binding ELISA plates (Corning Inc., New York, NY, USA, Cat #3590). Plates were coated using 100 μL/well of recombinant human FRα protein (Sino Biological cat #11241-H08H); recombinant cynomolgus FRα protein (Sino Biological cat #90950-C08H); recombinant rat FRα protein (Sino Biological cat #81073-R08H) or recombinant mouse FRα protein (Sino Biological cat #50573-M08H) in PBS (pH 7.4) at 2 μg/mL and incubated overnight at 4° C. After 2 washes with PBS-T (PBS+0.05% Tween-20), the plates were blocked with 200 μL/well of incubation buffer (PBS-T+0.1% BSA) for 1 h at room temperature. The plates were washed 4 times with PBS-T, and 100 μL of a threefold dilution series of tested compound (antibody or antibody-drug conjugate) was added. Then, the plates were incubated for 2 h at room temperature in the dark. After 5 washes with PBS-T, plates were incubated 1 h at room temperature with 100 μL/well of a goat anti-human IgG (H+L) HRP conjugated antibody (Jackson Immunoresearch cat #109-035-088), previously diluted 1:250000 in incubation buffer. After 5 washes with PBS-T, TMB substrate solution (Thermo-Fisher cat #N301) was added. […] Sigmoidal fittings were performed using GraphPad Prism 9 software.
(In general: ELISA stands for enzyme-linked immunosorbent assay.)

For assay [6], the target named is T1, recombinant human FRα protein (Sino …). As to the kind of experiment: ELISA: plate coated with recombinant human FRα (2 µg/mL), threefold dilution series of F-LALA-VA-EXA, goat anti-human IgG-HRP, A450; x axis printed as [Recombinant FRa] (M) with log10 values. The protocol:
as §3
Sandwich ELISA assays were performed using 96-well high-binding ELISA plates (Corning Inc., New York, NY, USA, Cat #3590). […]

The target in assay [7] is T3, recombinant mouse FRα protein (Sino Biological cat #50573-M08H) (mouse, UniProt P35846 25-232).
T3 construct: Bought; also called mouse recombinant FRα protein
T3 sequence (P35846 25-232 limits assumed, stated change not applied): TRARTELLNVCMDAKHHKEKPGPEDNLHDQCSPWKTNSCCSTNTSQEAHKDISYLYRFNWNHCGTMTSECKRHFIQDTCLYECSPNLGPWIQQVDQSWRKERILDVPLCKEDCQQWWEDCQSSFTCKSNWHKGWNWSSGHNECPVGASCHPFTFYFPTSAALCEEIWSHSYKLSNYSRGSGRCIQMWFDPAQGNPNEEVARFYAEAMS
As to the kind of experiment: ELISA: plate coated with recombinant mouse FRα (2 µg/mL), threefold dilution series of F-LALA-VA-EXA, goat anti-human IgG-HRP, A450; x axis printed as [Recombinant FRa] (M) with log10 values. As to the method:
as §4

Assay [8] has as its target T4, recombinant cynomolgus FRα protein (Sino Biological cat #90950-C08H) (cynomolgus, UniProt A0A2K5U044 25-234).
T4 construct: Bought; also called cynomolgus recombinant FRα protein
As to the kind of experiment: ELISA: plate coated with recombinant cynomolgus FRα (2 µg/mL), threefold dilution series of F-LALA-VA-EXA, goat anti-human IgG-HRP, A450; x axis printed as [Recombinant FRa] (M) with log10 values. The protocol: as §4

T1 sequence (P15328 25-233 limits assumed): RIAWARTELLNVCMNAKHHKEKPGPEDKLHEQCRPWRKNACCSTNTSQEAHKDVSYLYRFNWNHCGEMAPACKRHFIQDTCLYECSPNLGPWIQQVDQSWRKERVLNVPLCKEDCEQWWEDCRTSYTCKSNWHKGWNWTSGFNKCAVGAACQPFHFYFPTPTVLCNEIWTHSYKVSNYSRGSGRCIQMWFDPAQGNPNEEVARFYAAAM
T4 sequence (A0A2K5U044 entry or part of it C08H C08H): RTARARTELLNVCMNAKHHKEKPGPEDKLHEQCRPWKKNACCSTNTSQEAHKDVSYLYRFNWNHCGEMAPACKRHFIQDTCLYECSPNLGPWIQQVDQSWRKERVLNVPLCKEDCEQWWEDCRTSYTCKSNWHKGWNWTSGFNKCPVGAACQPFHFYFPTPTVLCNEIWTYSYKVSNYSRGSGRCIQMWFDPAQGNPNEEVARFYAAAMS

B1: mirvetuximab (antibody, human IgG1, kappa, V domains shown)
VH: QVQLVQSGAEVVKPGASVKISCKASGYTFTGYFMNWVKQSPGQSLEWIGRIHPYDGDTFYNQKFQGKATLTVDKSSNTAHMELLSLTSEDFAVYYCTRYDGSRAMDYWGQGTTVTVSS
VL: DIVLTQSPLSLAVSLGQPAIISCKASQSVSFAGTSLMHWYHQKPGQQPRLLIYRASNLEAGVPDRFSGSGSKTDFTLTISPVEAEDAATYYCQQSREYPYTFGGGTKLEIKR
notes: also called native mirvetuximab
For the molecule B1, in assay [1], the koff is 0.000244 s⁻¹ and the kon was found to be 1.15e+06 M⁻¹ s⁻¹. Besides, the Kd in assay [2] was 0.211 nM. In addition, the “EC50 (read off the curve)” value in assay [3] was about 0.2 nM.

B2: M-SORAV (antibody, human IgG1, kappa, V domains shown)
VH: B1 VH
VL: B1 VL
modifications: sulfo-SPDB-DM4 stochastically conjugated to lysines; average DAR 3.35 for the whole antibody
notes: Antibody-drug conjugate; also called ADC derivative of mirvetuximab; mirvetuximab soravtansine comparator
B2: in assay [1], the off-rate (koff) amounted to 0.000327 s⁻¹ and the on-rate (kon) was 1.26e+06 M⁻¹ s⁻¹. In addition, the Kd in assay [2] is 0.26 nM. The “EC50 (read off the curve)” value in assay [3] was about 0.3 nM.

B3: farletuzumab (antibody, human IgG1, kappa)
heavy: not shown
light: DIQLTQSPSSLSASVGDRVTITCSVSSSISSNNLHWYQQKPGKAPKPWIYGTSNLASGVPSRFSGSGSGTDYTFTISSLQPEDIATYYCQQWSSYPYMYTFGQGTKVEIKRTVAAPSVFIFPPSDEQLKSGTASVVCLLNNFYPREAKVQWKVDNALQSGNSQESVTEQDSKDSTYSLSSTLTLSKADYEKHKVYACEVTHQGLSSPVTKSFNRGEC
notes: Human IgG1, made in CHO K1 cells; also called mAb2; native farletuzumab
Take B3: the “fold change of KD against mirvetuximab and mirvetuximab-based constructs” value in assay [4] is about 10 fold. Besides, in assay [1], the koff came out at 0.0361 s⁻¹ and the kon is 1.9e+06 M⁻¹ s⁻¹. Also, the Kd in assay [2] was 25.1 nM. Also, the concentration giving a half-maximal response (EC50 (read off the curve)) in assay [3] was about 0.1 nM.

B4: F-VA-EXA (antibody, human IgG1, kappa)
heavy chain: not shown
light chain: B3 light
modifications: interchain cysteine thiol conjugated to drug-linker LNK4-S, DAR 8; interchain cysteine thiols conjugated to drug-linker LNK4-S (Val-Ala-exatecan, polysarcosine), DAR 8
Regarding B4, in assay [1], the koff was determined as 0.0306 s⁻¹ and the kon turned out to be 1e+06 M⁻¹ s⁻¹. Further, in assay [2], the Kd is 30.9 nM. The “EC50 (read off the curve)” value in assay [3] was about 0.1 nM.

B5: F-LALA-VA-EXA (antibody, human IgG1, kappa, L234A L235A)
heavy: not shown
light: B3 light
modifications: drug-linker LNK4-S on the interchain cysteine thiol, 1 per light chain (LC-1d); drug-linker LNK4-S (Val-Ala-exatecan with polysarcosine) on interchain cysteine thiols, 3 per heavy chain (HC-3d); DAR …
notes: Antibody-drug conjugate
For the molecule B5, the binding result in assay [5] and in assay [7] was “no binding” throughout. The “EC50 (read off the curve)” value in assay [6], in assay [8] and in assay [3] was about 0.1 nM each time. In addition, the off-rate constant (koff) in assay [1] was found to be 0.0368 s⁻¹. Moreover, the kon in assay [1] was 1.33e+06 M⁻¹ s⁻¹. In addition, in assay [2], the Kd was 27.8 nM.

B6: farletuzumab-LALA (antibody, human IgG1, kappa, L234A L235A)
heavy: not shown
light: B3 light
notes: also called mAb1; Fc-silent farletuzumab-LALA
For B6, in assay [4], the “fold change of KD against mirvetuximab and mirvetuximab-based constructs” value is about 10 fold. In assay [1], the koff is 0.0321 s⁻¹ and the kon stood at 1.34e+06 M⁻¹ s⁻¹. Further, in assay [2], the Kd is 25.5 nM. Also, in assay [3], the “EC50 (read off the curve)” value is about 0.1 nM.

What is called koff is the rate constant with which the complex falls apart. By kon is commonly meant a measure of how fast the partners come together. By Kd is commonly meant the constant that tells how readily two partners part at equilibrium. What is called EC50 (read off the curve) is the midpoint of the concentration-response curve.
